In article PMC11199706:

How the values were obtained:
[1] = target: NOPLight (human (NOPR part)); test: other fluorescence titration; apparent; NOPLight on AAV-transduced cultured rat cortical neurons in HBSS, N/OFQ applied manually during confocal imaging (20x), normalised ΔF/F0 fitted with a three-parameter Hill equation
[2] = target: NOPLight (human (NOPR part)); test: fluorescence response of the sensor on cells (wash-off kinetics); NOPLight on HEK293T cells under constant perfusion with 37 °C HBSS, about 50 nL of 100 µM N/OFQ puffed onto the cells, mono-exponential decay fit
[3] = target: NOPLight (human (NOPR part)); test: fluorescence response of the sensor in acute brain slices (off kinetics); NOPLight expressed in mouse brain (AAV), slices at 31 °C in aCSF, 50 nL of N/OFQ at 10, 50 or 500 nM puffed onto the slice
[4] = target: NOPLight (human (NOPR part)); test: fluorescence response of the sensor on cells (confocal imaging); sensor on AAV-transduced cultured rat cortical neurons in HBSS, 1 µM N/OFQ, ΔF/F0 of membrane pixels
[5] = target: NOPLight (human (NOPR part)); test: fluorescence response of the sensor on cells (line-scan confocal imaging, kinetics); NOPLight on HEK293T cells, 37 °C, N/OFQ applied in bolus with Red-Dextran dye, line scan at 800 Hz, mono-exponential association fit
[6] = target: NOPLight (human (NOPR part)); test: fluorescence response of the sensor on cells (confocal imaging); sensor on transfected HEK293T cells in HBSS, ligand pipetted in at one concentration (1 µM where stated), ΔF/F0 of membrane pixels
[7] = target: NOPLight (human (NOPR part)); test: other fluorescence titration; apparent; NOPLight on transfected HEK293T cells in HBSS, N/OFQ applied manually during confocal imaging (20x), normalised ΔF/F0 fitted with a three-parameter Hill equation
[8] = target: NOPLight (human (NOPR part)); test: fluorescence response of the sensor on cells (wash-off kinetics); NOPLight on HEK293T cells on coverslips, 37 °C HBSS, 500 nM N/OFQ bath-applied, perfusion turned on after 30 s, mono-exponential decay fit
[9] = target: NOPLight (human (NOPR part)); test: fluorescence response of the sensor in acute brain slices; NOPLight expressed in the mouse arcuate nucleus (AAV), coronal slices perfused with aCSF pH 7.2, increasing N/OFQ (5 nM to 10 µM) bath-applied for 10 min each

B1: nociceptin/orphanin-FQ peptide (peptide)
peptide: FGGFTGARKSARKLANQ
B1 gave an EC50 [1] of 42.8 nM, a τoff (localized puff application) [2] of 29.9 s and a τoff at 10 nM N/OFQ [3] of 30.9 s. The τoff at 50 nM N/OFQ [3] was 41.1 s, the τoff at 500 nM N/OFQ [3] was 53.1 s and the ΔF/F0 upon N/OFQ (1 µM) [4] was 378%. For the same binder, the τON (time constant of signal activation) [5] was 595 ms, the ΔF/F0 upon N/OFQ (1 µM) [6] was 388% and the EC50 [7] was 28.6 nM. For the same binder, the τoff (bath application) [8] was 57.1 s, the ΔF/F0 at 10 nM N/OFQ [9] was 1.9% and the ΔF/F0 at 10 µM N/OFQ [9] was 73%.
